Key:
[1] = molecular target: the molecule itself; experiment: SEC
[2] = molecular target: the molecule itself; experiment: non-reducing SDS/PAGE
[3] = molecular target: the molecule itself; experiment: SEC; remark: listed apart in the source

B1: WT Prx3, hyperoxidized dimer (enzyme, human, UniProt P30048 62-256, looked up)
chain: APAVTQHAPYFKGTAVVNGEFKDLSLDDFKGKYLVLFFYPLDFTFVCPTEIVAFSDKANEFHDVNCEVVAVSVDSHFSHLAWINTPRKNGGLGHMNIALLSDLTKQISRDYGVLLEGSGLALRGLFIIDPNGVIKHLSVNDLPVGRSVEETLRLVKAFQYVETHGEVCPANWTPDSPTIKPSPAASKEYFQKVNQ
modifications: per dimer: one Cys-Sp as sulfinic acid (SpO2-), the other active site a Cys-Sp to Cys-Sr disulfide
stoichiometry N [1]: 2

B2: CT* Prx3, oxidized (as purified) (enzyme, human, UniProt P30048 62-256, looked up)
chain: APAVTQHAPYFKGTAVVNGEFKDLSLDDFKGKYLVLFFYPLDFTFVCPTEIVAFSDKANEFHDVNCEVVAVSVDSHFSHLAWINTPRKNGGLGHMNIALLSDLTKQISRDYGVLLEGSGLALRGLFIIDPNGVIKHLSVNDLPVGRSVEETLRLVKAFQYVETHGEVCPAGWKPGSDTIKPSPAASKEYFQKVNQ
modifications: oxidized form (inter-subunit disulfides)
stoichiometry N [2]: 2

B3: WT Prx3, oxidized (disulfide) (enzyme, human, UniProt P30048 62-256, looked up)
chain: APAVTQHAPYFKGTAVVNGEFKDLSLDDFKGKYLVLFFYPLDFTFVCPTEIVAFSDKANEFHDVNCEVVAVSVDSHFSHLAWINTPRKNGGLGHMNIALLSDLTKQISRDYGVLLEGSGLALRGLFIIDPNGVIKHLSVNDLPVGRSVEETLRLVKAFQYVETHGEVCPANWTPDSPTIKPSPAASKEYFQKVNQ
modifications: intermolecular disulfides between Cys-Sp and Cys-Sr of the opposing subunit (two per dimer)
stoichiometry N [2]: 2

B4: WT Prx3, reduced (enzyme, human, UniProt P30048 62-256, looked up)
chain: APAVTQHAPYFKGTAVVNGEFKDLSLDDFKGKYLVLFFYPLDFTFVCPTEIVAFSDKANEFHDVNCEVVAVSVDSHFSHLAWINTPRKNGGLGHMNIALLSDLTKQISRDYGVLLEGSGLALRGLFIIDPNGVIKHLSVNDLPVGRSVEETLRLVKAFQYVETHGEVCPANWTPDSPTIKPSPAASKEYFQKVNQ
stoichiometry N [3]: 2

B5: WT Prx2, oxidized (disulfide) (enzyme, human, UniProt P32119 1-198, looked up)
chain: MASGNARIGKPAPDFKATAVVDGAFKEVKLSDYKGKYVVLFFYPLDFTFVCPTEIIAFSNRAEDFRKLGCEVLGVSVDSQFTHLAWINTPRKEGGLGPLNIPLLADVTRRLSEDYGVLKTDEGIAYRGLFIIDGKGVLRQITVNDLPVGRSVDEALRLVQAFQYTDEHGEVCPAGWKPGSDTIKPNVDDSKEYFSKHN
modifications: intermolecular disulfides between Cys-Sp and Cys-Sr of the opposing subunit (two per dimer)
stoichiometry N [1]: 10
stoichiometry N [2]: 2

B6: CT* Prx2, oxidized (as purified) (enzyme, human, UniProt P32119 1-198, looked up)
chain: MASGNARIGKPAPDFKATAVVDGAFKEVKLSDYKGKYVVLFFYPLDFTFVCPTEIIAFSNRAEDFRKLGCEVLGVSVDSQFTHLAWINTPRKEGGLGPLNIPLLADVTRRLSEDYGVLKTDEGIAYRGLFIIDGKGVLRQITVNDLPVGRSVDEALRLVQAFQYTDEHGEVCPANWTPDSPTIKPNVDDSKEYFSKHN
modifications: oxidized form (inter-subunit disulfides)
stoichiometry N [2]: 2
